Ends that are not written are not given here.
B1: mLcn2 (modified lipocalin2, monomeric) (designed binder)
chain: QDSTSDLIPAPPLSKVPLQQNFQDNQFHGKWYVVGLAGNRILRDDQHPMNMYATIYELKEDKSYNVTSVISSHKKCEYTIATFVPGSQPGEFTLGNIKSYGDKTSYLVRVVSTDYNQYAVVFFKLAEDNAEFFAITIYGRTKELASELKENFIRFSKSLGLPENHIVFPVPIDQCIDG
notes: Engineered lipocalin 2; also called monomeric mLCN2
B2: mLcn2-Fc (unmodified, without N-terminal mask) (Fc fusion)
chain: B1 chain
notes: also called dimeric mLCN2-Fc; unmodified mLcn2-Fc; not shown: flexible linker between mLcn2 and Fc; human IgG1 Fc domain
B3: Peptide 12 (chemically synthesized cyclic peptide) (peptide)
peptide: CSVLPPFMC
modifications: also: cyclic peptide, ring type not given here
notes: Immobilized on a CM5 chip in the SPR; also called Pep12
B4: Peptide 16 (chemically synthesized cyclic peptide) (peptide)
peptide: CWSPLPFMC
modifications: also: cyclic peptide, ring type not given here
notes: Immobilized on a CM5 chip in the SPR; also called Pep16

Legend:
[1] = biological target: T1, CTLA-4-Fc (recombinant bivalent CTLA-4 fused to the human IgG1 Fc) (human, UniProt P16410 36-161, Homodimer through the IgG1 Fc (bivalent); the Fc is left out of the letters.); assay: SPR; dimeric CTLA-4-Fc immobilized at medium density on a CM5 chip; analyte 3-1000 nM
T1 construct: also called dimeric CTLA-4-Fc; CTLA-4 (in the SEC legends); not shown: human IgG1 Fc and any linker of the CTLA-4-Fc fusion
Procedure: (§1) FIG. 10A: SPR analysis. Dimeric CTLA-4-Fc was immobilized at medium density to a CM5 chip. A range of 3-1000 nM monomeric mLCN2 (top) and 3-300 nM dimeric mLCN2-Fc (bottom) analytes were used for kinetics analyses. […] Concentration of analytes is 1000; 300; 30; and 3 nM.

[2] = biological target: B4; assay: SPR; analyte mLcn2 flowed over Peptide16 immobilized on a CM5 chip; analyte mLcn2 flowed over Peptide16 immobilized to a CM5 chip
Source text: FIG. 14A: mLCN2 vs. Pep16. Surface plasmon resonance of analyte mLcn2 flowed over ligand Peptide16 immobilized to a CM5 chip. Representative results are shown from three independent experiments.

[3] = biological target: T1, CTLA-4-Fc (recombinant bivalent CTLA-4 …); assay: SPR; dimeric CTLA-4-Fc immobilized at medium density on a CM5 chip; analyte 3-300 nM
Procedure: as §1

[4] = biological target: B3; assay: SPR; analyte mLcn2-Fc flowed over Peptide12 immobilized on a CM5 chip
Source text: FIG. 14B: mLCN2-Fc vs. Pep12. Surface plasmon resonance of analyte mLcn2-Fc flowed over ligand Peptide12 immobilized to a CM5 chip. Representative results are shown from three independent experiments.

[5] = biological target: B1; assay: crystal structures of the peptide-mLcn2 complexes

T1 sequence (P16410 36-161 limits assumed): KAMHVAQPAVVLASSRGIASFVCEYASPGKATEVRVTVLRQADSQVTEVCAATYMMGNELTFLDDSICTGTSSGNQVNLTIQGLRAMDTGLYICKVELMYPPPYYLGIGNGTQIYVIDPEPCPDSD

Binder: B1
- koff [1]: 0.0002 s⁻¹
- kon [1]: 36000 M⁻¹ s⁻¹
- Kd [2]: 4.6 µM

Binder: B2
- kon [3]: 10000 M⁻¹ s⁻¹
- Kd [4]: 3.4 µM

Binder: B3
- binding result [5]: binds

Binder: B4
- binding result [5]: binds
